In IntAct's records for PubMed 31515488:

B1: Leucine rich adaptor protein 1 (Homo sapiens), Q96LR2 (parent)
chain: MEGTVESQTPDLRDVEGKVGRKTPEGLLRGLRGECELGTSGALLLPGASSTGHDLGDKIMALKMELAYLRAIDVKILQQLVTLNEGIEAVRWLLEERGTLTSHCSSLTSSQYSLTGGSPGRSRRGSWDSLPDTSTTDRLDSVSIGSFLDTVAPSELDEQGPPGAPRSEMDWAKVIAGGERARTEVDVAATRLGSLRAVWKPPGERLQGGPPESPEDESAKLGFEAHWFWEQCQDDVTFL
partner: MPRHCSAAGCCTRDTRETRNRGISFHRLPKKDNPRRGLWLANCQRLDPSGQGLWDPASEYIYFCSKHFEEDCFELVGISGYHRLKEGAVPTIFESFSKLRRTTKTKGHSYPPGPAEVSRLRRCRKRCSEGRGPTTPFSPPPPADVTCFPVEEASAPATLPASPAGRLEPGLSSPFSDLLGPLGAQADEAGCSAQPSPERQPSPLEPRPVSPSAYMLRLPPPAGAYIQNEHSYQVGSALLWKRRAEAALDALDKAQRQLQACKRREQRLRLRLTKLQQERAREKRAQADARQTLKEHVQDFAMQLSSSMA
B2: Syntenin-2 (Homo sapiens), Q9H190 (parent)
chain: MSSLYPSLEDLKVDQAIQAQVRASPKMPALPVQATAISPPPVLYPNLAELENYMGLSLSSQEVQESLLQIPEGDSTAVSGPGPGQMVAPVTGYSLGVRRAEIKPGVREIHLCKDERGKTGLRLRKVDQGLFVQLVQANTPASLVGLRFGDQLLQIDGRDCAGWSSHKAHQVVKKASGDKIVVVVRDRPFQRTVTMHKDSMGHVGFVIKKGKIVSLVKGSSAARNGLLTNHYVCEVDGQNVIGLKDKKIMEILATAGNVVTLTIIPSVIYEHMVKKLPPVLLHHTMDHSIPDA
partner: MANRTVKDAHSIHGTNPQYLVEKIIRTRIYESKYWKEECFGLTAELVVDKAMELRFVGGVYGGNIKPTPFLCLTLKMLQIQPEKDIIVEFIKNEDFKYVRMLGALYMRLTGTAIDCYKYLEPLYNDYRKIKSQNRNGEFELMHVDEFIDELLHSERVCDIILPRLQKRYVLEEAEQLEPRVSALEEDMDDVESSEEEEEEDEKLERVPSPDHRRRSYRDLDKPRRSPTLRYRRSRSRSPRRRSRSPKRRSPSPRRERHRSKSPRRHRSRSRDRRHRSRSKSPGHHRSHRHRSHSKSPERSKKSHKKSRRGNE
B3: Keratin, type I cytoskeletal 13 (Homo sapiens), P13646 (parent)
chain: MSLRLQSSSASYGGGFGGGSCQLGGGRGVSTCSTRFVSGGSAGGYGGGVSCGFGGGAGSGFGGGYGGGLGGGYGGGLGGGFGGGFAGGFVDFGACDGGLLTGNEKITMQNLNDRLASYLEKVRALEEANADLEVKIRDWHLKQSPASPERDYSPYYKTIEELRDKILTATIENNRVILEIDNARLAADDFRLKYENELALRQSVEADINGLRRVLDELTLSKTDLEMQIESLNEELAYMKKNHEEEMKEFSNQVVGQVNVEMDATPGIDLTRVLAEMREQYEAMAERNRRDAEEWFHTKSAELNKEVSTNTAMIQTSKTEITELRRTLQGLEIELQSQLSMKAGLENTVAETECRYALQLQQIQGLISSIEAQLSELRSEMECQNQEYKMLLDIKTRLEQEIATYRSLLEGQDAKMIGFPSSAGSVSPRSTSVTTTSSASVTTTSNASGRRTSDVRRP
B4: Scaffold protein ILK (Homo sapiens), Q13418 (parent)
chain: MDDIFTQCREGNAVAVRLWLDNTENDLNQGDDHGFSPLHWACREGRSAVVEMLIMRGARINVMNRGDDTPLHLAASHGHRDIVQKLLQYKADINAVNEHGNVPLHYACFWGQDQVAEDLVANGALVSICNKYGEMPVDKAKAPLRELLRERAEKMGQNLNRIPYKDTFWKGTTRTRPRNGTLNKHSGIDFKQLNFLTKLNENHSGELWKGRWQGNDIVVKVLKVRDWSTRKSRDFNEECPRLRIFSHPNVLPVLGACQSPPAPHPTLITHWMPYGSLYNVLHEGTNFVVDQSQAVKFALDMARGMAFLHTLEPLIPRHALNSRSVMIDEDMTARISMADVKFSFQCPGRMYAPAWVAPEALQKKPEDTNRRSADMWSFAVLLWELVTREVPFADLSNMEIGMKVALEGLRPTIPPGISPHVCKLMKICMNEDPAKRPKFDMIVPILEKMQDK
partner: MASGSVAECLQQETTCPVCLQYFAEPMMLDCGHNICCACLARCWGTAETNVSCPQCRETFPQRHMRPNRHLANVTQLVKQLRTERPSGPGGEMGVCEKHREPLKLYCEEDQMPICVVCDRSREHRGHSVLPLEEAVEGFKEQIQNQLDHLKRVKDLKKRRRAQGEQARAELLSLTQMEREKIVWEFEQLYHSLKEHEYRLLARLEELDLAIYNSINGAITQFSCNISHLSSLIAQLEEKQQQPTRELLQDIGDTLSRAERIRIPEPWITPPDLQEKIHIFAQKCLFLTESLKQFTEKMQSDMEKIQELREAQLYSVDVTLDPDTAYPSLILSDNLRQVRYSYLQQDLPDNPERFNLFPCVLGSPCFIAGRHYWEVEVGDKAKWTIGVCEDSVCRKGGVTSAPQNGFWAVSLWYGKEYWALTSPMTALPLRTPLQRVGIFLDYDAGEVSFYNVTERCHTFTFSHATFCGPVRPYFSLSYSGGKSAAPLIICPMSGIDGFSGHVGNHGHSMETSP
B5: DCC-interacting protein 13-beta (Homo sapiens), Q8NEU8 (parent)
chain: MPAVDKLLLEEALQDSPQTRSLLSVFEEDAGTLTDYTNQLLQAMQRVYGAQNEMCLATQQLSKQLLAYEKQNFALGKGDEEVISTLHYFSKVVDELNLLHTELAKQLADTMVLPIIQFREKDLTEVSTLKDLFGLASNEHDLSMAKYSRLPKKKENEKVKTEVGKEVAAARRKQHLSSLQYYCALNALQYRKQMAMMEPMIGFAHGQINFFKKGAEMFSKRMDSFLSSVADMVQSIQVELEAEAEKMRVSQQELLSVDESVYTPDSDVAAPQINRNLIQKAGYLNLRNKTGLVTTTWERLYFFTQGGNLMCQPRGAVAGGLIQDLDNCSVMAVDCEDRRYCFQITTPNGKSGIILQAESRKENEEWICAINNISRQIYLTDNPEAVAIKLNQTALQAVTPITSFGKKQESSCPSQNLKNSEMENENDKIVPKATASLPEAEELIAPGTPIQFDIVLPATEFLDQNRGSRRTNPFGETEDESFPEAEDSLLQQMFIVRFLGSMAVKTDSTTEVIYEAMRQVLAARAIHNIFRMTESHLMVTSQSLRLIDPQTQVSRANFELTSVTQFAAHQENKRLVGFVIRVPESTGEESLSTYIFESNSEGEKICYAINLGKEIIEVQKDPEALAQLMLSIPLTNDGKYVLLNDQPDDDDGNPNEHRGAESEA
partner: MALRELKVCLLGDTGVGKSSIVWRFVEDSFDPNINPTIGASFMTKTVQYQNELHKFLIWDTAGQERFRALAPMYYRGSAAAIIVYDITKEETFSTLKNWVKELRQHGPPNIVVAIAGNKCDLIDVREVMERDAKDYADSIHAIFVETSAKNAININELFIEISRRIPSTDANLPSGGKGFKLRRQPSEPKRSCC
B6: Scaffold protein ILK (Homo sapiens), Q13418 (parent)
chain: B4 chain
partner: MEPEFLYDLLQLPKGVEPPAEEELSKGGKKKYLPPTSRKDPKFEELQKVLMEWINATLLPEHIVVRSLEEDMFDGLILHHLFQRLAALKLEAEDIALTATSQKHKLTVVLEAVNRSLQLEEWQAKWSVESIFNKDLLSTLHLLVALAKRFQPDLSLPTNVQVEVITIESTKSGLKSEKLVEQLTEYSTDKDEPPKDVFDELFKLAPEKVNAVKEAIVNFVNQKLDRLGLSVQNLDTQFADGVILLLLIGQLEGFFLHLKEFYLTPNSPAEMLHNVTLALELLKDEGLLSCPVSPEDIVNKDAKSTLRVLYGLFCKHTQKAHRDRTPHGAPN

Variants of: B1
Conditions: with thap7_human THAP7, Q9BT49

Row | effect of a mutation on the interaction | Variant
1 | disrupting interaction strength | Q207R
2 | with no effect | M60L

Variants of: B2
Conditions: with pr38a_human PRPF38A

Row | effect of a mutation on the interaction | Variant
3 | disrupting interaction strength | G242R
4 | with no effect | V182M
5 | disrupting interaction strength | G225R

Variants of: B3
Conditions: with k22e_human KRT2, P35908
Chain of k22e_human KRT2, P35908 (P35908 whole entry): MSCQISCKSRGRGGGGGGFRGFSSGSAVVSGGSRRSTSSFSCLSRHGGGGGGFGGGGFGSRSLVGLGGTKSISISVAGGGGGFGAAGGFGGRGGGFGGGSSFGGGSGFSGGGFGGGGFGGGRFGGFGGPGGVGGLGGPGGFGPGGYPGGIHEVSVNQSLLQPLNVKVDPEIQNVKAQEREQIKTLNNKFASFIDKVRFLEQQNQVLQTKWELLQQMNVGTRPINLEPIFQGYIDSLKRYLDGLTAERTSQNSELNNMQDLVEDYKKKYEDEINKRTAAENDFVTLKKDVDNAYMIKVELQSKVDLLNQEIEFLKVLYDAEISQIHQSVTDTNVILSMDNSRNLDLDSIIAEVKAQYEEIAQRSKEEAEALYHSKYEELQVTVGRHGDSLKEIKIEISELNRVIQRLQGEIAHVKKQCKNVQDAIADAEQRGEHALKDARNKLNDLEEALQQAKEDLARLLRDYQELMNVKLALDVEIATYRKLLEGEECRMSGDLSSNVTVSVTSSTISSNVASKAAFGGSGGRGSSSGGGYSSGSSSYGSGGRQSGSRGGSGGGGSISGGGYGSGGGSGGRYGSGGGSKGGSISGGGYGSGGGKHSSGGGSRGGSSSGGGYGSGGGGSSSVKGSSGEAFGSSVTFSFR

Row | effect of a mutation on the interaction | Variant
6 | with no effect | R355H

Variants of: B3
Conditions: with k2c4_human KRT4, P19013
Chain of k2c4_human KRT4, P19013 (P19013 whole entry): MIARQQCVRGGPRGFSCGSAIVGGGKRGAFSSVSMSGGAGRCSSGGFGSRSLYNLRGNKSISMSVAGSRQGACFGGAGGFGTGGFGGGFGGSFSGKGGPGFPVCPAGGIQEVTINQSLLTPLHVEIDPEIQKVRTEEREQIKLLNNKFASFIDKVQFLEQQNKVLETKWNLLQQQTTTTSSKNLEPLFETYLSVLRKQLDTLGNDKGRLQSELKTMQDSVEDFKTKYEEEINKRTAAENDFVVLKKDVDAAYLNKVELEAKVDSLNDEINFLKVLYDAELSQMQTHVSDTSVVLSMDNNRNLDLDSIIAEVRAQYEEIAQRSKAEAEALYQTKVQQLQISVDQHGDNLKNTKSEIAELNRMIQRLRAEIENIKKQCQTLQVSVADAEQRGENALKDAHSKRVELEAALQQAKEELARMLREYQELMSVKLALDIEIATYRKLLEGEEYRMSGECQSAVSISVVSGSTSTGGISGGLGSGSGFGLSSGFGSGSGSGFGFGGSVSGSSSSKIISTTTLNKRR

Row | effect of a mutation on the interaction | Variant
7 | with no effect | R355H

Variants of: B3
Conditions: with KRT6A

Row | effect of a mutation on the interaction | Variant
8 | with no effect | R355H

Variants of: B3
Conditions: with ccnc_human CCNC

Row | effect of a mutation on the interaction | Variant
9 | with no effect | R355H

Variants of: B4
Conditions: with tri27_human TRIM27, P14373

Row | effect of a mutation on the interaction | Variant
10 | with no effect | V340G

Variants of: B5
Conditions: with rb22a_human RAB22A

Row | effect of a mutation on the interaction | Variant
11 | with no effect | K70R

Variants of: B6
Conditions: with parvg_human PARVG

Row | effect of a mutation on the interaction | Variant
12 | with no effect | V340G
